T1: Pepsinogen C (PGC) (human)
T1 chain: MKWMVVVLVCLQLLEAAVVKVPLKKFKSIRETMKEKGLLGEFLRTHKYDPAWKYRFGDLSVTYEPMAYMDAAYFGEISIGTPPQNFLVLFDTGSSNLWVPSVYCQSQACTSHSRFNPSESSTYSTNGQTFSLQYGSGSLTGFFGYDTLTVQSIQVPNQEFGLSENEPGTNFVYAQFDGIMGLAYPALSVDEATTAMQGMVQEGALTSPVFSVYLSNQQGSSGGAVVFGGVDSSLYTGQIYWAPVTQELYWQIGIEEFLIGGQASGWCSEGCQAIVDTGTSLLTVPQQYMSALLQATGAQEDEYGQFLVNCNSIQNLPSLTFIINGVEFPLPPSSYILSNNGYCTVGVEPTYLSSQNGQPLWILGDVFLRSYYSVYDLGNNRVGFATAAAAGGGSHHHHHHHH


Target: T1, Pepsinogen C (PGC)
Assay: SPR, 37C, order of magnitude only

Row | Binder | Kd
1 | mAb 11 (antibody, V domains shown) VH: QVQLQQPGTELVKPGASVKLSCKASGYTFTNYWMHWVKQRPGQGLEWIGNINPFNGATNYNDNFKTKATLTVDKSSSTAYMHLSSLTSEDSAVYYCARYDYSKYYAMDYWGQGTSVTVSS VL: ENVLTQSPAIMAASPGDKVTMTCSASSSINSAHFHWYQQKPGTSPKLWIYRTSNLASGVPARFSGRGSGTSYSLTISSMEAADAATYYCQQWSDYPWTFGGGTKLEIR | ~0.1 nM
2 | mAb 27 (antibody, V domains shown) VH: QIQLVQSGPELKKPGETVKISCKASGYTFTNYGMNWVKQAPGKGLKWIGWINTYTGDPTYADDFKGRFAFSLETSASNGYLQIDNLKKEDTATYFCARRDIFAMDYWGQGTSVTVSS VL: DIQMTQTTSSLSASLGDRVTITCRASQDIMKYLHWYQQKPDGTIKLLFYYTSRLHSGVPSRFSGSGSGTDYSLTISNLEQEDIATYFCQQDVKYPWTFGGGTKLEIK | ~0.1 nM

More lines, in order of falling Kd, values ahead:

Row | Kd | Binder
3 | ~0.1 nM | mAb 75 (antibody, V domains shown) VH: QIQLVQSGPELKKPGETVKISCKASGYTFTNYGMNWVKQAPGKGLKWMGLINTYTRGPTFADDFKGRFAFSVETSANTAYLQINNLKTEDTATYFCARRGEYYGSSYVDYWGQGTTLTVSS VL: DIQMTQITSSLSASLGDRVTISCRASQDIMHFLNWYQQKPDGTVKLLIYYTSRLHSGVPSRFSGSGSGTDYSLTITNLEPEDIATYYCQQHSNLPPTFGGGTKLEIK
4 | ~0.1 nM | mAb 123 (antibody, V domains shown) VH: QIQLVQSGPELKKPGETVKISCKGSGYTFTNYGMNWVKQAPGKGLKWMGWINTYTGDPTYADDFKGRIAFSLETSASTAYLQIDNLKNEDTATYFCARRDIFAMDYWGQGTSVTVSS VL: DIQMTQTTSSLSASLGDRVTITCRASQDIMKYLHWYQQKPDGTVKLLIYYTSRLHSGVPSRFSGSGSGTDYSLTISNLEQEDIATYFCQQDIKYPWTFGGGTKLEIK
5 | ~0.01 nM | mAb 22 (antibody, V domains shown) VH: QIQLVQSGPELKKPGETVKISCKASGYTFTNYGMNWVKQAPGKGLKWIGWINTYTGDPTYADDFKGRFAFSLETSASNGYLQIDNLKKEDTATYFCARRDIFAMDYWGQGTSVTVSS VL: DIQMTQTTSSLSASLGDRVTITCRASQDIMKYLHWYQQKPDGTIKLLIYYTSRLHSGVPSRFSGSGSGTDYSLTISNLEQEDIATYFCQQDVKYPWTFGGGTKLEIK

Reference: patent US20260365759 (published 2026)
